Target: 53BP1 (UniProt Q12888)
Assay: FLAG-53BP1 IP, Myc-PP4R3β immunoblot
Conditions: reference: wild type, mitotic cells; sites S840

- binding against the reference: weaker
Substance: PP4R3β (from UniProt Q5MIZ7) S840A, mitotic cells

— PMC6751209
